In general, Kd refers to the constant that tells how readily two partners part at equilibrium. As usually defined, the koff is the first-order rate constant of dissociation. In general, kon refers to a measure of how fast the partners come together.

Where “and” joins values, the source holds several entries; their conditions need not be identical. Equal entries are not always repeated.

From US20220119534A1 (DRAGONFLY THERAPEUTICS, published 2022) come the findings set out here.

One assay concerns the target T1, Human CLEC12A-His (human, UniProt Q5QGZ9 65-265).
T1 construct: Recombinant soluble protein made in house (Dragonfly Tx); The hCLEC12A spot of the HuProt array is written under this molecule as well; also called hCLEC12A-His; hCLEC12A; not shown: His tag
T1 sequence: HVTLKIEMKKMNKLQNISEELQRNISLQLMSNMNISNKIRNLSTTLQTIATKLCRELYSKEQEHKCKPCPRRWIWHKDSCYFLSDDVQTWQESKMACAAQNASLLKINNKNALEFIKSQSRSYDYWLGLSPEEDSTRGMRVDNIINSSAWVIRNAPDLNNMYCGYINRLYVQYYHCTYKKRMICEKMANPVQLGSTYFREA
The assay can be described thus: SPR Biacore 8K 37 C; TriNKET captured on anti-hFc chip, hCLEC12A-His as analyte; 1:1 fit; after 2 wks 25 C in CST pH 7.0, n=2.

For another assay, the target named is T2, Human CD64 (FcγRI) (human, UniProt P12314 16-288, biotinylated).
T2 construct: Bought recombinant receptor; also called hFcγRI; Human FcγRI
T2 sequence (P12314 16-288 limits assumed): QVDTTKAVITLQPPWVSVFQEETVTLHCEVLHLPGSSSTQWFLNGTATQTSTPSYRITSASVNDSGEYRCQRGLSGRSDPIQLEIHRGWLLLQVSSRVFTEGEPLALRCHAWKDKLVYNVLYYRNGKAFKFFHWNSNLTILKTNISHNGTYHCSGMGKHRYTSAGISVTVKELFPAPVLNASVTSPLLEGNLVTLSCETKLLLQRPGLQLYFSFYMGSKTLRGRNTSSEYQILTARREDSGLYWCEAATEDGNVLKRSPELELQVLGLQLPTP
The assay can be described thus: SPR 25C, average.

A further assay deals with T3, Cynomolgus CD64 (FcγRI) (cynomolgus monkey, UniProt A0A2K5U901 33-309, Biotinylated and captured on the CAP chip (p-1094); the biotin site is not stated.).
T3 construct: Bought recombinant receptor; also called cFcγRI; Cynomolgus FcγRI; not shown: The vendor's biotinylation and purification tag (ACRO FCA-C82E8)
T3 sequence (A0A2K5U901 entry or part of it limits assumed): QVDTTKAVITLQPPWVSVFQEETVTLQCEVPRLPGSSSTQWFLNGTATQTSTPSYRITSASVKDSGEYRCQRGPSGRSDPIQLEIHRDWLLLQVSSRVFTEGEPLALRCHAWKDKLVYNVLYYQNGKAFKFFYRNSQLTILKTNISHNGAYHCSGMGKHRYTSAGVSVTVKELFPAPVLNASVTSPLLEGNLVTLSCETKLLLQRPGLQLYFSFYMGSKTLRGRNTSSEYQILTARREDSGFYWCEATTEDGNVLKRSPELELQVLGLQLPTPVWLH
The assay can be described thus: SPR 25C, average.

Assay [1] has as its target T4, Cynomolgus CD16 (FcγRIII) (cynomolgus monkey, UniProt Q8SPW2 17-208, biotinylated).
T4 construct: Bought recombinant receptor; also called cFcγRIII; Cyno FcγRIII
The assay can be described thus: SPR 25C, average.

For assay [2], the target named is T5, mFc-hNKG2D (recombinant mFc-tagged human NKG2D dimer) (human, UniProt P26718 73-216).
T5 construct: extracellular domain; Made in house; not shown: mouse Fc tag
T5 sequence (looked up): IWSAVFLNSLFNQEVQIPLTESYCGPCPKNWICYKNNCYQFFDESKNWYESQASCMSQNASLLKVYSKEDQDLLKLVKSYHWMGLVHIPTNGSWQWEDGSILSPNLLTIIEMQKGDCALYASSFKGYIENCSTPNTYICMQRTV
The assay can be described thus: SPR; control sample. Background: In SPR one partner is held on a chip, and binding of the other changes the refractive index at the surface.

Assay [3] has as its target T6, Human CD16a V158 (FcγRIIIa V158) (human, UniProt P08637 17-208, biotinylated).
T6 construct: Bought recombinant receptor; also called hCD16aV; hFcγRIIIa V158
The assay can be described thus: SPR; control sample.

For assay [4], the target named is T7, Human CLEC12A expressed on cells (Ba/F3-hCLEC12A, PL21, HL60) (human, UniProt Q5QGZ9 1-265).
T7 sequence: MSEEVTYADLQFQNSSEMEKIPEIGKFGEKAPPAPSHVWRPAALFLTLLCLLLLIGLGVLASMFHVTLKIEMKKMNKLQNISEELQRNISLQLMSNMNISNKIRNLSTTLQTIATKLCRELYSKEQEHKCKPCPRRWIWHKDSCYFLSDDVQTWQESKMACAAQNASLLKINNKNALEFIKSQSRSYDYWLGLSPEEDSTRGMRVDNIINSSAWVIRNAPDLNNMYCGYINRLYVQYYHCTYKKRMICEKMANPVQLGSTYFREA
The assay can be described thus: cell-based or functional assay.

Assay [5] has as its target T7, Human CLEC12A expressed on cells …. The assay can be described thus: cell-based or functional assay. The source holds these as a separate data set.
For assay [6] the target is unchanged. The assay can be described thus: cell-based or functional assay. The source holds these as a separate data set.
The target in assay [7] is T8, Human CLEC12A-His (recombinant, K244 WT) (human, UniProt Q5QGZ9 65-265).
T8 construct: Made in house (Dragonfly Tx); also called hCLEC12A; hCLEC12A-His; not shown: His tag
T8 sequence: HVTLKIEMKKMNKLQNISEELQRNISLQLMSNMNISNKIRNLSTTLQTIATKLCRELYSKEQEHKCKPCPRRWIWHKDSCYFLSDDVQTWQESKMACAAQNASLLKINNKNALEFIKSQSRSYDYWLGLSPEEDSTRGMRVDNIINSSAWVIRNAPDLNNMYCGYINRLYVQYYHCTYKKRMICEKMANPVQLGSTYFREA
The assay can be described thus: SPR, two-state fit (kd1); after low pH hold.

Assay [8] concerns the target T9, Human CD32a H131 (FcγRIIa H131) (human, UniProt P12318 36-218, limits assumed, biotinylated).
T9 construct: Bought recombinant receptor; also called hFcγRIIa H131; FcgRIIa H131
T9 sequence (looked up): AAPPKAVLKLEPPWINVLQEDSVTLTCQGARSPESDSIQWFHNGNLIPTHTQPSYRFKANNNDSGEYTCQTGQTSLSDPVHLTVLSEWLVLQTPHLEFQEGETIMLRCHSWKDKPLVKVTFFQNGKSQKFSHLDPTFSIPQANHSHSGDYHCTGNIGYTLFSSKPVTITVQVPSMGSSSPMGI
The assay can be described thus: SPR 25C, biotinylated receptor captured on SA chip.

The target of assay [9] is T10, Human CD32a R131 (FcγRIIa R131) (human, UniProt P12318 36-218, limits assumed, biotinylated).
T10 construct: Bought recombinant receptor; also called hFcγRIIa R131; FcgRIIa R131
T10 sequence (looked up): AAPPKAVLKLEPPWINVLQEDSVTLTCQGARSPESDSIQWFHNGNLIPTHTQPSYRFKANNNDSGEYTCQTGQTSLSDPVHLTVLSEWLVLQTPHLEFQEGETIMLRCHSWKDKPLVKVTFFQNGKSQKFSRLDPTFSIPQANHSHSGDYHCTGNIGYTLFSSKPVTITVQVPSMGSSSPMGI
The assay can be described thus: SPR 25C, biotinylated receptor captured on SA chip.

T6 sequence (P08637 17-208 F176V limits assumed): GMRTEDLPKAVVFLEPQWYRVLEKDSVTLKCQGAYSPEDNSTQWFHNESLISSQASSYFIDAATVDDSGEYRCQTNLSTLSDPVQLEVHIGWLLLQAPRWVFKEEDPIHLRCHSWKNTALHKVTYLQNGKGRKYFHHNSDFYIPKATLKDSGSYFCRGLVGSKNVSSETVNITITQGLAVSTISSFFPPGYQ
T4 sequence (Q8SPW2 17-208 limits assumed): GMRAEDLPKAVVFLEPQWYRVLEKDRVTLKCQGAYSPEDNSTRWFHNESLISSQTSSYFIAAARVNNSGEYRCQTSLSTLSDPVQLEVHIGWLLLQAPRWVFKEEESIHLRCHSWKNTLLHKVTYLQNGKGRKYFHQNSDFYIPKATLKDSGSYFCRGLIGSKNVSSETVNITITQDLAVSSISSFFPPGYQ

B1: F3'-1602 TriNKET (bispecific antibody, human IgG1, kappa)
chain: QLQLQESGPGLVKPSETLSLTCTVSGFSLTNYGLHWIRQPPGKCLEWIGVIWSGGKTDYNPSLKSRVTISKDTSKNQFSLKLSSVQAADTAVYYCAKYDYDDSLDYWGQGTLVTVSSGGGGSGGGGSGGGGSGGGGSDIQMTQSPSSLSASVGDRVTITCHASQNINFWLSWYQQKPGKAPKLLIYEASNLHTGVPSRFSGSGSGTRFTLTISSLQPEDIATYYCQQSHSYPLTFGCGTKLEIKGSDKTHTCPPCPAPELLGGPSVFLFPPKPKDTLMISRTPEVTCVVVDVSHEDPEVKFNWYVDGVEVHNAKTKPREEQYNSTYRVVSVLTVLHQDWLNGKEYKCKVSNKALPAPIEKTISKAKGQPREPRVYTLPPCRDELTKNQVSLTCLVKGFYPSDIAVEWESNGQPENNYKTTPPVLVSDGSFTLYSKLTVDKSRWQQGNVFSCSVMHEALHNHYTQKSLSLSPG
heavy: EVQLVESGGGLVKPGGSLRLSCAASGFTFSSYSMNWVRQAPGKGLEWVSSISSSSSYIYYADSVKGRFTISRDNAKNSLYLQMNSLRAEDTAVYYCARGAPIGAAAGWFDPWGQGTLVTVSSASTKGPSVFPLAPSSKSTSGGTAALGCLVKDYFPEPVTVSWNSGALTSGVHTFPAVLQSSGLYSLSSVVTVPSSSLGTQTYICNVNHKPSNTKVDKKVEPKSCDKTHTCPPCPAPELLGGPSVFLFPPKPKDTLMISRTPEVTCVVVDVSHEDPEVKFNWYVDGVEVHNAKTKPREEQYNSTYRVVSVLTVLHQDWLNGKEYKCKVSNKALPAPIEKTISKAKGQPREPQVCTLPPSRDELTENQVSLTCLVKGFYPSDIAVEWESNGQPENNYKTTPPVLDSDGSFFLYSWLTVDKSRWQQGNVFSCSVMHEALHNHYTQKSLSLSPG
light: DIQMTQSPSSVSASVGDRVTITCRASQGISSWLAWYQQKPGKAPKLLIYAASSLQSGVPSRFSGSGSGTDFTLTISSLQPEDFATYYCQQGVSFPRTFGGGTKVEIKRTVAAPSVFIFPPSDEQLKSGTASVVCLLNNFYPREAKVQWKVDNALQSGNSQESVTEQDSKDSTYSLSSTLTLSKADYEKHKVYACEVTHQGLSSPVTKSFNRGEC
notes: Trispecific F3' format: CLEC12A scFv-Fc paired with NKG2D Fab-Fc; Stressed and control samples of the stability studies are the same molecule; also called AB0237
With B1, in the assay with Human CLEC12A-His, the Kd amounted to 0.93 nM, the off-rate constant (koff) stood at 0.000765 s⁻¹ and the on-rate constant (kon) came to 824000 M⁻¹ s⁻¹.

B2: AB0089 TriNKET (bispecific antibody, human IgG1, kappa)
chain: QLQLQESGPGLVKPSETLSLTCTVSGFSLTNYGLHWIRQPPGKCLEWIGVIWVGGATDYNPSLKSRVTISVDTSKNQFSLKLSSVQAADTAVYYCAKGDYGDTLDYWGQGTLVTVSSGGGGSGGGGSGGGGSGGGGSDIQMTQSPSSLSASVGDRVTITCHASQNINFWLSWYQQKPGKAPKLLIYEASNLHTGVPSRFSGSGSGTDFTLTISSLQPEDFATYYCQQSHSYPLTFGCGTKLEIKGSDKTHTCPPCPAPELLGGPSVFLFPPKPKDTLMISRTPEVTCVVVDVSHEDPEVKFNWYVDGVEVHNAKTKPREEQYNSTYRVVSVLTVLHQDWLNGKEYKCKVSNKALPAPIEKTISKAKGQPREPRVYTLPPCRDELTKNQVSLTCLVKGFYPSDIAVEWESNGQPENNYKTTPPVLVSDGSFTLYSKLTVDKSRWQQGNVFSCSVMHEALHNHYTQKSLSLSPG
heavy: EVQLVESGGGLVKPGGSLRLSCAASGFTFSSYSMNWVRQAPGKGLEWVSSISSSSSYIYYADSVKGRFTISRDNAKNSLYLQMNSLRAEDTAVYYCARGAPIGAAAGWFDPWGQGTLVTVSSASTKGPSVFPLAPSSKSTSGGTAALGCLVKDYFPEPVTVSWNSGALTSGVHTFPAVLQSSGLYSLSSVVTVPSSSLGTQTYICNVNHKPSNTKVDKKVEPKSCDKTHTCPPCPAPELLGGPSVFLFPPKPKDTLMISRTPEVTCVVVDVSHEDPEVKFNWYVDGVEVHNAKTKPREEQYNSTYRVVSVLTVLHQDWLNGKEYKCKVSNKALPAPIEKTISKAKGQPREPQVCTLPPSRDELTENQVSLTCLVKGFYPSDIAVEWESNGQPENNYKTTPPVLDSDGSFFLYSWLTVDKSRWQQGNVFSCSVMHEALHNHYTQKSLSLSPG
light: DIQMTQSPSSVSASVGDRVTITCRASQGISSWLAWYQQKPGKAPKLLIYAASSLQSGVPSRFSGSGSGTDFTLTISSLQPEDFATYYCQQGVSFPRTFGGGTKVEIKRTVAAPSVFIFPPSDEQLKSGTASVVCLLNNFYPREAKVQWKVDNALQSGNSQESVTEQDSKDSTYSLSSTLTLSKADYEKHKVYACEVTHQGLSSPVTKSFNRGEC
notes: F3' format heterodimer of three chains; human IgG1 Fc with EW-RVT and Y349C/S354C mutations; also called AB0089 Lot AB0089-002; CLEC12A TriNKET AB0089
As for B2, the Kd with Human CD64 (FcγRI) was 5.1 nM; with Cynomolgus CD64 (FcγRI), 1.5 nM; in assay [1] it was 349 nM; in [2] it was 772 nM; in [3], 323 nM; in [8] it was 954 nM and 823 nM and 930 nM and 895 nM. Also, in [9], the Kd is 1340 nM and 1020 nM and 1600 nM and 1060 nM. The koff in the assay with Human CD64 (FcγRI) came out at 0.00023 s⁻¹; with Cynomolgus CD64 (FcγRI), 8.1e-05 s⁻¹; in assay [2], 0.135 s⁻¹; in [3], 0.0276 s⁻¹; in [7], 0.0465 s⁻¹. Moreover, the on-rate constant (kon) with Human CD64 (FcγRI) was 46000 M⁻¹ s⁻¹; in the assay with Cynomolgus CD64 (FcγRI), 55000 M⁻¹ s⁻¹; in assay [2], 175000 M⁻¹ s⁻¹; in assay [3], 85300 M⁻¹ s⁻¹. For the same molecule, the “EC50, KHYG-1-CD16aV cytotoxicity assay; after 4 wks 40C in HST pH 6.0” value in assay [4] was found to be 0.17 nM. The “EC50, KHYG-1-CD16aV cytotoxicity assay; control sample” value in [4] worked out at 0.16 nM. Also, the “EC50, KHYG1-CD16aV cytotoxicity assay; after forced oxidation” value in assay [5] stood at 0.16 nM. Also, the “EC50, KHYG1-CD16aV cytotoxicity assay; control sample” value in [5] came to 0.11 nM. Besides, the “EC50, KHYG1-CD16aV cytotoxicity assay, HL-60 cells; control (AB0089-002)” value in assay [6] was 0.04 nM. For the same molecule, the “EC50, KHYG1-CD16aV cytotoxicity assay, HL-60 cells; low pH hold (AB0089-004)” value in [6] turned out to be 0.03 nM.
